Drawing on patent publication US20170240635A1 (AGENCY FOR SCIENCE TECHNOLOGY AND RESEARCH, published 2017), this text covers Kd, binding result and EC50 for nine molecules.

Test [1] deals with T1, human PD-1 coupled to human Fc (human, UniProt Q15116 25-167, limits assumed).
T1 construct: also called human-PD-1 coupled to Fc; not shown: human Fc
Put plainly: SPR (ProteOn XPR36); human PD-1-Fc immobilised, crude Fab extract flown over. The procedure: Briefly, human or mouse PD-1 coupled to human Fc was immobilised on a sensor chip compatible with the Proteon XPR36 bioanalyser (Biorad). Crude Fab extracts (or the control antibodies) were then flown onto the chip and the association/dissociation of each candidate Fab was then recorded and analysed, the affinity (KD) was calculated.

Another test deals with T2, hICOS-Fc (human, UniProt Q9Y6W8).
T2 construct: also called human ICOS
T2 sequence (antigen, looked up): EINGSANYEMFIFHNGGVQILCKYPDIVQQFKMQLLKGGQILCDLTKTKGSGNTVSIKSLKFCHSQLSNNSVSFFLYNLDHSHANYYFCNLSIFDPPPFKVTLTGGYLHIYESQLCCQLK
Put plainly: ELISA; antigen coated 350 ng/well, goat anti-human Fab-HRP, absorbance 450-670 nm. Here is the method: (§1) Anti-PD-1 antibodies were tested in an ELISA assay for their ability to bind to other members of the CD28 family.
(§2) Briefly, ELISA plates were coated with 350 ng/well of one of the following antigens coupled to human Fc in carbonate buffer: human PD-1, human PD-L1, human TIM-3, human LAG-3, human ICOS, human CTLA4, human BTLA, human CD28, mouse TIM-3, or rhesus PD-1. The plate was then blocked with a solution of casein. After extensive washes in PBS Tween-20, antibodies were added into the ELISA wells in the presence of 7% milk in PBS. After 90 minutes at room temperature under agitation and extensive washes, a goat anti-human Fab antibody coupled to HRP was added. One hour later, plates were washed and TMB substrate added. The reaction was stopped with 1M HCl and optical density measured at 450 nm with a reference at 670 nm.
(ELISA stands for enzyme-linked immunosorbent assay.)

The next test deals with T3, mTim3-Fc (mouse, UniProt Q8VIM0).
T3 construct: also called mouse TIM-3
The description is as above. The procedure:
as §1, §2

The target in test [2] is T4, human PD-L1 coupled to human Fc (human, UniProt Q9NZQ7 19-239, limits assumed).
T4 construct: ELISA coating antigen; not shown: human Fc
The description is as above. The procedure:
as §1, §2

In test [3] the target is T5, human TIM-3 coupled to human Fc (human, UniProt Q8TDQ0 22-200, limits assumed).
T5 construct: not shown: human Fc
The test is described as above. Here is the method:
as §1, §2

For test [4], the target named is T6, human LAG-3 coupled to human Fc (human, UniProt P18627 23-450, limits assumed).
T6 construct: ELISA coating antigen; not shown: human Fc
T6 sequence (looked up): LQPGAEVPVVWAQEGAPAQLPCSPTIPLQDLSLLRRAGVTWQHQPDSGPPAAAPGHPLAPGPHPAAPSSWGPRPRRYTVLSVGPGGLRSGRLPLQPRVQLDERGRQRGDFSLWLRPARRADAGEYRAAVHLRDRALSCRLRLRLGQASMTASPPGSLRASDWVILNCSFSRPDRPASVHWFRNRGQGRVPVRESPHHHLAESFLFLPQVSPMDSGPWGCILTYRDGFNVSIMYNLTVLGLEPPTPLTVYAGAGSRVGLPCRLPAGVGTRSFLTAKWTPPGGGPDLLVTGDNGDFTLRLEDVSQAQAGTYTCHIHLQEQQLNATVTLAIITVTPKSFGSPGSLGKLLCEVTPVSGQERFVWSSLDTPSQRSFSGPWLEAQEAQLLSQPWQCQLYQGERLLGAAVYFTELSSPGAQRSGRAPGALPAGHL
The test is described as above. The procedure:
as §1, §2

For test [5], the target named is T7, human BTLA coupled to human Fc (human, UniProt Q7Z6A9 31-150, limits assumed).
T7 construct: ELISA coating antigen; not shown: human Fc
The description is as above. The procedure: as §1, §2

The target of test [6] is T8, human CD28 coupled to human Fc (human, UniProt P10747 19-152, limits assumed).
T8 construct: ELISA coating antigen; not shown: human Fc
Described as above. The procedure: as §1, §2

For test [7], the target named is T9, hCTLA4-Fc (human, UniProt P16410).
T9 construct: also called human CTLA-4; human CTLA4
Put plainly: ELISA; antigen coated 350 ng/well, Fab-containing supernatant, goat anti-human Fab-HRP, absorbance 450-670 nm.

Test [8] has as its target T9, hCTLA4-Fc. Put plainly: ELISA; antigen coated 350 ng/well, goat anti-human Fab-HRP, absorbance 450-670 nm. The procedure: as §1, §2
In test [9] the target is T10, PD-1 on exhausted human T cells (human, UniProt Q15116 25-288).
T10 construct: whole, on cells; T cells exhausted by 7 days of culture with allogeneic monocyte-derived dendritic cells
As to the kind of experiment: flow cytometry (MFI); IgG4 on human T cells activated 7 days with allogeneic DCs, fluorescent secondary antibody. The procedure:
(§3) 50,000 T cells isolated from a healthy donor were incubated in the presence of 5,000 monocyte-derived DCs from another donor for 7 days at 37° C. Antibodies, expressed as IgG4, were incubated with such activated T cells for 30 minutes in PBS. After a wash in PBS, a fluorescent labelled secondary antibody was added for 30 minutes and then washed in PBS. Cells were resuspended in FACS buffer and binding of the antibody to the cells was monitored by flow cytometry (FIGS. 6 and 7).

Test [10] deals with T10, PD-1 on exhausted human T cells. Described as above. Here is the method: as §3
The source holds these as a separate data set.

Broadly, the Kd is the equilibrium constant for the complex coming apart. A higher Kd goes with weaker binding. As a reminder, the EC50 is the midpoint of the concentration-response curve.

Substitutions are numbered along the chain they refer to. Where two headings read alike, the source gives them in different places.

T7 sequence (Q7Z6A9 31-150 limits assumed): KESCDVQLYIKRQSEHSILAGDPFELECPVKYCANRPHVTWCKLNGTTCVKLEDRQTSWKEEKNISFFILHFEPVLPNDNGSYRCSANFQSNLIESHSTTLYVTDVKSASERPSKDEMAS
T3 sequence (Q8VIM0 20-191 limits assumed): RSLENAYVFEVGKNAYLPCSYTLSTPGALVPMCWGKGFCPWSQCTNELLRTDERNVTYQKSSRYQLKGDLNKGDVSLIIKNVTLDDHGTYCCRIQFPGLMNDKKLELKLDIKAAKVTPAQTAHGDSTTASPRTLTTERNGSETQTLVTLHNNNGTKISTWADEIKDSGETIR
T4 sequence (Q9NZQ7 19-239 limits assumed): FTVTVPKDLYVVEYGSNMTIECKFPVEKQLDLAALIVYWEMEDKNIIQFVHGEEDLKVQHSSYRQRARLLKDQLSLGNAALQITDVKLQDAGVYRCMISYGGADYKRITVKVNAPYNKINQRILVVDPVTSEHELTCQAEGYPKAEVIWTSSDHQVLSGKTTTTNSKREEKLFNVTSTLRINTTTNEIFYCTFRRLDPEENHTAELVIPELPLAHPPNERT
T10 sequence (Q15116 25-288): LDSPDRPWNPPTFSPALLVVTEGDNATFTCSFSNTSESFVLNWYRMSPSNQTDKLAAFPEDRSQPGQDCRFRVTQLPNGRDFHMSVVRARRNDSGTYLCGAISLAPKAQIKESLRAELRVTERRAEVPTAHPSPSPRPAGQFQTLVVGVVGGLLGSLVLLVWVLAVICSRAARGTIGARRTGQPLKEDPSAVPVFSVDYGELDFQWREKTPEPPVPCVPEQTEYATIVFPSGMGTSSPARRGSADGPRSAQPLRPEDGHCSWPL
T9 sequence (P16410 37-162 limits assumed): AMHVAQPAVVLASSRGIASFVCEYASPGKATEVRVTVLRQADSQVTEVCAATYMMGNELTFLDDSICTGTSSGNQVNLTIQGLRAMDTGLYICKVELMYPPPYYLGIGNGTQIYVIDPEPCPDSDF
T1 sequence (Q15116 25-167 limits assumed): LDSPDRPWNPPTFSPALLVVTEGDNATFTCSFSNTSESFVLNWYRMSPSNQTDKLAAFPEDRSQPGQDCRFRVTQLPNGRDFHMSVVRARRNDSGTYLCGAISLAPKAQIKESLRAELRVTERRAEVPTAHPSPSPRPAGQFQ

B1: anti-PD-1 antibody clone B6 (Fab) (Fab, V domains shown)
VH: QVQLVESGGGVVQPGRSLRLSCAASGFTFSSYGMHWVRQAPGKGLEWVAVISYDGSNKYYADSVKGRFTISRDNSKNTLYLQMNSLRAEDTAVYYCASDYGAGPYYYGMDVWGQGTTVTVSS
VL: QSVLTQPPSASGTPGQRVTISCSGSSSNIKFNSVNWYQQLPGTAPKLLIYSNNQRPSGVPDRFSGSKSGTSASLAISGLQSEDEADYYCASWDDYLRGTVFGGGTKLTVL
notes: Crude Fab extract in SPR
B1: the Kd in test [1] amounted to 0.26 nM. In addition, the binding result (in the test with hICOS-Fc; with mTim3-Fc; in [2]; in test [3]; in [4]; in test [5]) was “no binding (tested: not given)” throughout. The binding result (in test [6]; with hCTLA4-Fc [7]) was “no binding (tested: not given)” in each case.

B2: anti-PD-1 antibody clone H4 (Fab) (Fab, V domains shown)
VH: B1 VH with Y100L, A102S, P104Y, Y106L
VL: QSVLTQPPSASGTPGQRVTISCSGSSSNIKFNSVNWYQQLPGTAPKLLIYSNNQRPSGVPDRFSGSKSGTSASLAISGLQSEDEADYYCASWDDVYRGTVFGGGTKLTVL
notes: Crude Fab extract in SPR
For the molecule B2, in [1], binding was put at a Kd of 0.27 nM. The binding result (with hCTLA4-Fc [8]; with hICOS-Fc; with mTim3-Fc; in test [2]; in test [3]; in test [4]) was “no binding (tested: not given)” throughout. For the same molecule, the binding result in test [5] and in test [6] was “no binding (tested: not given)” each time.

B3: A10-IgG4 (antibody, V domains shown)
VH: B1 VH with E6Q, Y100L, M109K
VL: LPVLTQPPSASGTPGQRVTISCSGSSSNIKFNSVNWYQQLPGTAPKLLIYSNNQRPSGVPDRFSGSKSGTSASLAISGLQSEDEADYFCASWDDYYYGTIFGGGTKLTVL
notes: also called anti-PD-1 antibody clone A10 (human IgG4)
As for B3, the half-maximal effective concentration (EC50) in test [9] is 0.262 nM; in test [10] it was 0.253 nM.

B4: anti-PD-1 antibody clone G10 (Fab) (Fab, V domains shown)
VH: B1 VH
VL: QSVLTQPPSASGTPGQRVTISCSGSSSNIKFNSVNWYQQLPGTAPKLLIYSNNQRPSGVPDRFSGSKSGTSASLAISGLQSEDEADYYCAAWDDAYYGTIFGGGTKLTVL
notes: Crude Fab extract in SPR
In turn, B4 had a Kd in test [1] of 0.27 nM. The binding result (with hICOS-Fc; with mTim3-Fc; in [2]; in test [3]; in test [4]; in test [5]) was “no binding (tested: not given)” each time. In addition, the binding result (in [6]; in the test with hCTLA4-Fc [7]) was “no binding (tested: not given)” each time.

B5: anti-PD-1 antibody clone E1 (Fab) (Fab, V domains shown)
VH: B1 VH with Y100L
VL: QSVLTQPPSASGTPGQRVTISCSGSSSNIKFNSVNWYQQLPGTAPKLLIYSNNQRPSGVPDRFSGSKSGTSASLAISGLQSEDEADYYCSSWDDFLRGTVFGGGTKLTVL
notes: Crude Fab extract in SPR
For the molecule B5, in [1], the Kd was determined as 0.21 nM. Also, the binding result (in the test with hICOS-Fc; with mTim3-Fc; in [2]; in [3]; in test [4]; in [5]) was “no binding (tested: not given)” in each case. Also, the binding result (in test [6]; with hCTLA4-Fc [7]) was “no binding (tested: not given)” each time.

B6: anti-PD-1 antibody clone D4 (Fab) (Fab, V domains shown)
VH: B1 VH with Y100L
VL: B3 VL with L1Q, P2S, F88Y, Y96V, Y97R, I100M
notes: Crude Fab extract in SPR
In the case of B6, in [1], the affinity, expressed as Kd, was 0.22 nM. The binding result (in the test with hICOS-Fc; in the test with mTim3-Fc; in test [2]; in [3]; in test [4]; in [5]) was “no binding (tested: not given)” each time. For the same molecule, the binding result (in test [6]; with hCTLA4-Fc [7]) was “no binding (tested: not given)” each time.

B7: A3-IgG4 (antibody, V domains shown)
VH: B1 VH with E6Q, Y100L, M109K, V111H
VL: B3 VL with Y95V, Y96L, T99S, I100V
notes: also called anti-PD-1 antibody clone A3 (human IgG4)
B7 came in with an EC50 in [9] of 0.855 nM.

B8: anti-PD-1 antibody clone G1 (Fab) (Fab, V domains shown)
VH: B1 VH with Y100L
VL: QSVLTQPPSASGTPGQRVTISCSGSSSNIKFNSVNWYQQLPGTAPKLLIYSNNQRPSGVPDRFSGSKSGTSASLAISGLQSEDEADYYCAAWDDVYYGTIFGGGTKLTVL
notes: Crude Fab extract in SPR
B8 registered a Kd in test [1] of 0.1 nM. For the same molecule, the binding result (with hCTLA4-Fc [8]; with hICOS-Fc; with mTim3-Fc; in test [2]; in test [3]; in test [4]) was “no binding (tested: not given)” each time. For the same molecule, the binding result in test [5] and in test [6] was “no binding (tested: not given)” throughout.

B9: anti-PD-1 antibody clone C4 (Fab) (Fab, V domains shown)
VH: B1 VH with Y100L, M109L
VL: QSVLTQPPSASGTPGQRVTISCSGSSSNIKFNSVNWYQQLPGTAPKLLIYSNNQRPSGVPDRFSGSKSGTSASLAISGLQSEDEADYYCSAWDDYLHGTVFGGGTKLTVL
notes: Crude Fab extract in SPR
In test [1], B9 showed an equilibrium dissociation constant (Kd) of 0.4 nM. Also, the binding result (with hICOS-Fc; with mTim3-Fc; in test [2]; in test [3]; in test [4]; in test [5]) was “no binding (tested: not given)” in each case. The binding result (in test [6]; in the test with hCTLA4-Fc [7]) was “no binding (tested: not given)” in each case.
